Experimental data as given in the DeepSol protein solubility set.

Assay: soluble on expression in E. coli; label from the status in PepcDB or PDB records

Sequence | soluble on expression in E. coli
MGEIADSLAGLTISVVSPDNQLAATVRRRREVTVHFRPGSYERYDARTLETQLSQLFTLVMSGYRQGYMSVMEAHDMTVMADASDVDTEAGRIVRRRRDETVALGESAQGMVRAKTRGLSEWRFKIADGALSRLSEEQFTAEIHGAFMNVMADWSRRVRRIHWEVFSPDRVPAAGR | not soluble
MGENITTRGVDLLGLPTGTRLRLGESALVELTGLRNPCSQLDNYQPGLTAAVLGRDEQGNLIRKAGVMAIVLEDGEVRPGDAIDIQLPPLPHRALEKV | not soluble
MGFEDLVEVTTMIADLTTDQREALLLTQLLGLSYADAAAVCGCPVGTIRSRVARARDALLADAEPDDLTG | soluble
MGFGFRHILTEREFTRSFAIQRKLKVIAEEIKADVIITHDTGCTTTFEKNQWIGKAHGMYYPVAVMSDVMFSALACGAHPFKVVQLYWNCSNYEPLLEKMGITNWRELKKEWEDTVKYIAELEKQGKYDELLEFFKEYDLYEPYSKTSDGFKLRKSATADLPLFKS | not soluble
MGFKRLLASLGAGGASVETVLTEVNVVPGGVVQGEVRIQGGSVNQAIEGLSVGLQAKVEVEGHDDQEYKQDIEFAKLSLGGAFELQAGAVHAVPFGLEIPWETPITMIDGQALRGMNIGVTTELEIARAVDSGDLDPVNVHPLPAQKAILDAFVQLGFRFKNADMERGHIRGTRQRLPFYQEIEFFPPSQYRGLNQVELSFVADDREMDVILEMDKKPGLFSEGSDSYRSFQVGLNDFQGTDWTAYLHQWLSEVGSKRSWF | not soluble
MGFLKGKKGLIVGVANNKSIAYGIAQSCFNQGATLAFTYLNESLEKRVRPIAQELNSPYVYELDVSKEEHFKSLYNSVKKDLGSLDFIVHSVAFAPKEALEGSLLETSKSAFNTAMEISVYSLIELTNTLKPLLNNGASVLTLSYLGSTKYMAHYNVMGLAKAALESAVRYLAVDLGKHHIRVNALSAGPIRTLASSGIADFRMILKWNEINAPLRKNVSLEEVGNAGMYLLSSLSSGVSGEVHFVDAGYHVMGMGAVEEKDNKATLLWDLHKEQ | soluble
MGGEQRETNLSIRGKAYIVGAFEHPLRYAPAHSVAQLHAECALGALADAGLTLADVDGYFCAGDAGASPATLVDHMNLRLRHVDGTEIGGGSYLALIGHAAQAIASGKCRVALITLAGKPRSAGQATGTEARQPGPDRPASAWEAPYRWTVAGIYGNFARRHMHEYGTTSEQLAWVKVAASHHAQHNEHALLRKVYSVEDVLASPMIADPLHRLDCCVITDGGGALVLAAPEVARSLARPRIRVLGCGETIRTNNGGHHADMLHTGAQRSGPAAFAEAGVTPADIKYASVYDNFTIMVIMQLEDLGFCEKGAGGRFVADGNLISGTGRLPWNTDGGGLCNNHPANRGGITKAIEAVRQLRGEAHPSVQVPNCDLALAAGPGLVFGVGHSHATVILERE | not soluble
MGGGGEDEYESLPTHSVPVHLTAGALAGAVEHCVMFPFDSVKTRMQSLCPCPETKCPTPVHSLMSIVKREGWLRPLRGVNAVAAGSMPAHALYFTVYEKMKGYLTGNSAGHSNTLAYGASGVVATLIHDAIMNPAEVVKQRMQMAFSPYGSSLECARCVYNREGVAAFYRSYTTQLAMNVPFQAIHFMSYEFWQHVLNPEHKYDPKSHLIAGGLAGGLAAALTTPMDCVKTVLNTQQAAEADPANRRIFLQARYRYRGISDAVRTIYSQRGLSGFSCGLQARVIFQVPATALSWSVYELFKFMLSFEGGHSS | not soluble
MGGIYRLSLKSTEATAERLSCDTRCNYEDRDLAYSPDGRWLAIARRFSNISEDIFIRDLASAHEKRLTQGLEDIRGLSWTPDSQALVFATEDSGSSNGFTLDINTAQIRSLDVEGMSYPSSVSAEGELVYHQYHRQFQMAYFSLGDKVPGSLFPLLYSGVSHRNPDYSPEAKRIVFVSSETGYNEIWTSDINGQKLEQLTQLKSRVAYPRWSPDGSRIAFIAPDDRNEGNRIFILDLTNKNITALASSYHNHGRPSWNWQGTAVLASTADGITEFYLDNRAPRVISSLSMAVGFAKSATELVFSRDGENGLWQINLTQPEHVEQLISTDAFRAGNNWVLTASGVYFKSSNGHEQLLNYWEASSQQVTSLLRVPRSSLSGFGSMTYIPEANRLVMTLDGFPQRDIILLKHKLLKLEHHHHHH | soluble
MGGSHHHHHHGMASALRTDKKSEFLKALKRDRVEEEHEDESRAGSEKDDDSFNLHNSNSTHQERDINRNFDENEIPQENGNASVISQQIIRSSTFPQTDVLSSSLEAEHRLLKEMGWQEDSENDETCAPLTEDEMREFQVISEQLQKNGLRKNGILKNGLICDFKFGPWKNSTFKPTTENDDTETSSSDTSDDDDV | not soluble
MGGSHHHHHHGMASAVNVYSTSVTSDNLSRHDMLAWINESLQLNLTKIEQLCSGAAYCQFMDMLFPGSIALKKVKFQAKLEHEYIQNFKILQAGFKRMGVDKIIPVDKLVKGKFQDNFEFVQWFKKFFDANYDGKDYDPVAARQGQETAVAPSLVAPALNKPKKPLTSSSAAPQRPISTQRTAAAPKAGPGVVRKNPGVGNGDDEAAELMQQVNVLKLTVEDLEKERDFYFGKLRNIELICQENEGENDPVLQRIVDILYATDEGFVIPDEGGPQEEQEEY | not soluble
MGGSHHHHHHGMASLAPGSSRVELFKRKNSTVPFEESNGTIRERVVHSFRIPTIVNVDGVMVAIADARYETSFDNSFIETAVKYSVDDGATWNTQIAIKNSRASSVSRVMDATVIVKGNKLYILVGSFNKTRNSWTQHRDGSDWEPLLVVGEVTKSAANGKTTATISWGKPVSLKPLFPAEFDGILTKEFIGGVGAAIVASNGNLVYPVQIADMGGRVFTKIMYSEDDGNTWKFAEGRSKFGCSEPAVLEWEGKLIINNRVDGNRRLVYESSDMGKTWVEALGTLSHVWTNSPTSNQQDCQSSFVAVTIEGKRVMLFTHPLNLKGRWMRDRLHLWMTDNQRIFDVGQISIGDENSGYSSVLYKDDKLYSLHEINTNDVYSLVFVRLIGELQLMKSVVRTWKEEDNHLASICTPVVPATPPSKGGCGAAVPTAGLVGFLSHSANGSVWEDVYRCVDANVANAERVPNGLKFNGVGGGAVWPVARQGQTRRYQFANYRFTLVATVTIDELPKGTSPLLGAGLEGPGDAKLLGLSYDKNRQWRPLYGAAPASPTGSWELHKKYHVVLTMADRQGSVYVDGQPLAGSGNTVVRGATLPDISHFYIGGPRSKGAPTDSRVTVTNVVLYNRRLNSSEIRTLFLSQDMIGTDGGAGTAA | soluble
MGGWSNFKFLFLSPGGELYGVLNDKIYKGTPPTHDNDNWLGRAKKIGDGGWNQFQFLFFDPNGYLYAVSKDKLYKAPPPQSDTDNWIARATEIGSGG | soluble
MGHHHHHHGGHMSLTTSTPSNRILVVMSSAAQIPLQDGKNHNTGYFLNEFGVPAKRLTDAGYELVIATPRGSVPGMDHNSDHDMFFKNKEEHNEIKAFVGDVLSNTTIQTTEAVAAEGTQAYAALFLPGGHAPMADLMADPALGEILRQFHAAAKPTALICHAPTALLAAQADPVAFQKGMEAGEQPSAQDFTYQGYRVTVFANDEEEATEKTFEAPMLYYPADALTQGGAQVENGEAMKPNVVRDRELLTGQNPFSDEPFVAQLLEMLGEGGS | soluble
MGHHHHHHSHAAPGAQHFLYEVPPWVMCRFYKVMDALEPADWCQFAALIVRDQTELRLCERSGQRTASVLWPWINRNARVADLVHILTHLQLLRARDIITAWHPPAPLP | not soluble
MGHHHHHHSHELEALSQDPRRYEEWKWFRCPTLLEVLEQFPSVALPAPLLLTQLPLLQPRYYSVSSAPSTHPGEIHLTVAVLAYRTQDGLGPLHYGVCSTWLSQLKPGDPVPCFIRGAPSFRLPPDPSLPCILVGPGTGIAPFRGFWQERLHDIESKGLQPTPMTLVFGCRCSQLDHLYRDEVQNAQQRGVFGRVLTAFSREPDNPKTYVQDILRTELAAEVHRVLCLERGHMFVCGDVTMATNVLQTVQRILATEGDMELDEAGDVIGVLRDQQRYHEDIFGLTLRTQEVTSRI | not soluble
MGHHHHHHSHELIREVEMGPFKHTVDDGLDIRKAAFECMYTLLDSCLDRLDIFEFLNHVEDGLKDHYDIKMLTFLMLVRLSTLCPSAVLQRLDRLVEPLRATCTTKVKANSVKQEFEKQDELKRSAMRAVAALLTIPEAEKSPLMSEFQSQISSNPELAAIFESIQKDSSSTNLESMDTS | not soluble
